# Data: US20190247381A1
# Target: FLAG-HA-Atoh1 (Mus musculus (Mouse)) (UniProt P48985)
# Experiment: IP-MS: immunoprecipitation of Atoh1 and its associated binding partners, excised gel band, mass spectrometry
row,Molecule,Total peptide [peptides]
1,BCKDHA (from UniProt P12694),5
2,EEF1A1 (from UniProt P68104),103
3,PDE4B (from UniProt Q07343),1
4,PRDX4 (from UniProt Q13162),1
5,PRPS1 (from UniProt P60891),3
6,PSMC5 (from UniProt P62195),52
7,RBMX (from UniProt P38159),65
8,TUBA1A (from UniProt Q71U36),112
9,TUBA4A (from UniProt P68366),1
10,TUBB2B (from UniProt Q9BVA1),2
11,SSB (protein) MAENGDNEKMAALEAKICHQIEYYFGDFNLPRDKFLKEQIKLDEGWVPLEIMIKFNRLNRLTTDFNVIVEALSKSKAELMEISEDKTKIRRSPSKPLPEVTDEYKNDVKNRSVYIKGFPTDATLDDIKEWLEDKGQVLNIQMRRTLHKAFKGSIFVVFDSIESAKKFVETPGQKYKETDLLILFKDDYFAKKNEERKQNKVEAKLRAKQEQEAKQKLEEDAEMKSLEEKIGCLLKFSGDLDDQTCREDLHILFSNHGEIKWIDFVRGAKEGIILFKEKAKEALGKAKDANNGNLQLRNKEVTWEVLEGEVEKEALKKIIEDQQESLNKWKSKGRRFKGKGKGNKAAQPGSGKGKVQFQGKKTKFASDDEHDEHDENGATGPVKRAREETDKEEPASKQQKTENGAGDQ,65
12,YARS2 (protein) TLNLSVLLPLGLRKAHSGAQGLLAAQKARGLFKDFFPETGTKIELPELFDRGTASFPQTIYCGFDPTADSLHVGHLLALLGLFHLQRAGHNVIALVGGATARLGDPSGRTKEREALETERVRANARALRLGLEALAANHQQLFTDGRSWGSFTVLDNSAWYQKQHLVDFLAAVGGHFRMGTLLSRQSVQLRLKSPEGMSLAEFFYQVLQAYDFYYLFQRYGCRVQLGGSDQLGNIMSGYEFINKLTGEDVFGITVPLITSTTGAKLGKSAGNAVWLNRDKTSPFELYQFFVRQPDDSVERYLKLFTFLPLPEIDHIMQLHVKEPERRGPQKRLAAEVTKLVHGREGLDSAKRCTQALYHSSIDALEVMSDQELKELFKEAPFSEFFLDPGTSVLDTCRKANAIPDGPRGYRMITEGGVSINHQQVTNPESVLIVGQHILKNGLSLLKIGKRNFYIIKWLQL,11
13,SERPINH1 (protein) AEVKKPAAAAAPGTAEKLSPKAATLAERSAGLAFSLYQAMAKDQAVENILVSPVVVASSLGLVSLGGKATTASQAKAVLSAEQLRDEEVHAGLGELLRSLSNSTARNVTWKLGSRLYGPSSVSFADDFVRSSKQHYNCEHSKINFRDKRSALQSINEWAAQTTDGKLPEVTKDVERTDGALLVNAMFFKPHWDEKFHHKMVDNRGFMVTRSYTVGVMMMHRTGLYNYYDDEKEKLQIVEMPLAHKLSSLIILMPHHVEPLERLEKLLTKEQLKIWMGKMQKKAVAISLPKGVVEVTHDLQKHLAGLGLTEAIDKNKADLSRMSGKKDLYLASVFHATAFELDTDGNPFDQDIYGREELRSPKLFYADHPFIFLVRDTQSGSLLFIGRLVRPKGDKMRDEL,9
14,ACOX1 (protein) MNPDLRRERDSASFNPELLTHILDGSPEKTRRRREIENMILNDPDFQHEDLNFLTRSQRYEVAVRKSAIMVKKMREFGIADPDEIMWFKKLHLVNFVEPVGLNYSMFIPTLLNQGTTAQKEKWLLSSKGLQIIGTYAQTEMGHGTHLRGLETTATYDPETQEFILNSPTVTSIKWWPGGLGKTSNHAIVLAQLITKGKCYGLHAFIVPIREIGTHKPLPGITVGDIGPKFGYDEIDNGYLKMDNHRIPRENMLMKYAQVKPDGTYVKPLSNKLTYGTMVFVRSFLVGEAARALSKACTIAIRYSAVRHQSEIKPGEPEPQILDFQTQQYKLFPLLATAYAFQFVGAYMKETYHRINEGIGQGDLSELPELHALTAGLKAFTSWTANTGIEACRMACGGHGYSHCSGLPNIYVNFTPSCTFEGENTVMMLQTARFLMKSYDQVHSGKLVCGMVSYLNDLPSQRIQPQQVAVWPTMVDINSPESLTEAYKLRAARLVEIAAKNLQKEVIHRKSKEVAWNLTSVDLVRASEAHCHYVVVKLFSEKLLKIQDKAIQAVLRSLCLLYSLYGISQNAGDFLQGSIMTEPQITQVNQRVKELLTLIRSDAVALVDAFDFQDVTLGSVLGRYDGNVYENLFEWAKNSPLNKAEVHESYKHLKSLQSKL,5

# The next lines start with the values.
row,Total peptide [peptides],Molecule
1,1,AAMP (from UniProt Q13685)
2,7,"CK1δ (CSNK1D), endogenous in 293T cells (from UniProt P48730) (enzyme)"
3,6,"CK1ε (CSNK1E), endogenous in 293T cells (from UniProt P49674) (enzyme)"
4,62,ENO1 (from UniProt P06733)
5,50,PSMC2 (from UniProt P35998)
6,7,TUBA1C (from UniProt Q9BQE3)
7,159,TUBB2A (from UniProt Q13885)
